In the supplement of paper PMC9112550, “Optimization of the antimicrobial peptide Bac7 by deep mutational scanning” (BMC Biology, 2022):

Tested on: Escherichia coli TOP10
Assay: shrunken log2 fold change of peptide-encoding DNA abundance (4.5 h post-induction vs induction); higher = less antimicrobial activity (less host growth inhibition)
Details: time post-induction: 4.5 h; library: site-saturation at positions 5, 18, 19, 20
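Note: peptides expressed intracellularly from a pBAD plasmid library in pooled LB shake-flask culture, induced with 0.3% L-arabinose, DNA abundance read by NGS, three biological replicates, DESeq2 with apeglm shrinkage.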

| Sequence | shrunken log2 fold change |
| --- | --- |
| RRIRPRPPRLPRPRPRPEWMPRP | 0.0362 |
| RRIRPRPPRLPRPRPRPEWNPRP | 0.07 |
| RRIRPRPPRLPRPRPRPEWPPRP | 0.449 |
| RRIRPRPPRLPRPRPRPEYQPRP | 0.288 |
| RRIRPRPPRLPRPRPRPFAGPRP | 0.0806 |
| RRIRPRPPRLPRPRPRPFCCPRP | 0.0801 |
| RRIRPRPPRLPRPRPRPFCNPRP | -0.609 |
| RRIRPRPPRLPRPRPRPFCQPRP | -0.257 |
| RRIRPRPPRLPRPRPRPFCSPRP | -0.186 |
| RRIRPRPPRLPRPRPRPFDEPRP | -0.0622 |
| RRIRPRPPRLPRPRPRPFDGPRP | -0.214 |
| RRIRPRPPRLPRPRPRPFEMPRP | 0.0143 |
| RRIRPRPPRLPRPRPRPFFFPRP | 0.279 |
| RRIRPRPPRLPRPRPRPFFHPRP | -0.229 |
| RRIRPRPPRLPRPRPRPFFPPRP | -0.135 |
| RRIRPRPPRLPRPRPRPFGCPRP | -0.144 |
| RRIRPRPPRLPRPRPRPFHVPRP | -0.428 |
| RRIRPRPPRLPRPRPRPFKLPRP | -0.00835 |
| RRIRPRPPRLPRPRPRPFMFPRP | -0.361 |
| RRIRPRPPRLPRPRPRPFNEPRP | -0.347 |
| RRIRPRPPRLPRPRPRPFNKPRP | -0.468 |
| RRIRPRPPRLPRPRPRPFNNPRP | -0.836 |
| RRIRPRPPRLPRPRPRPFNWPRP | -0.118 |
| RRIRPRPPRLPRPRPRPFPDPRP | 0.00657 |
| RRIRPRPPRLPRPRPRPFPSPRP | 0.0138 |

| Sequence | shrunken log2 fold change |
| --- | --- |
| RRIRPRPPRLPRPRPRPFQIPRP | -0.169 |
| RRIRPRPPRLPRPRPRPFQPPRP | -0.0843 |
| RRIRPRPPRLPRPRPRPFQWPRP | -0.0697 |
| RRIRPRPPRLPRPRPRPFREPRP | 0.261 |
| RRIRPRPPRLPRPRPRPFRNPRP | -0.0931 |
| RRIRPRPPRLPRPRPRPFRTPRP | -0.362 |
| RRIRPRPPRLPRPRPRPFSMPRP | -0.161 |
| RRIRPRPPRLPRPRPRPFTAPRP | -0.332 |
| RRIRPRPPRLPRPRPRPFTCPRP | -0.206 |
| RRIRPRPPRLPRPRPRPFVKPRP | -0.133 |
| RRIRPRPPRLPRPRPRPFVVPRP | -0.233 |
| RRIRPRPPRLPRPRPRPFWIPRP | -0.161 |
| RRIRPRPPRLPRPRPRPFWKPRP | 0.0756 |
| RRIRPRPPRLPRPRPRPFWVPRP | 0.0111 |
| RRIRPRPPRLPRPRPRPGAYPRP | 0.0679 |
| RRIRPRPPRLPRPRPRPGCVPRP | 0.447 |
| RRIRPRPPRLPRPRPRPGDAPRP | 0.398 |
| RRIRPRPPRLPRPRPRPGEKPRP | -0.0882 |
| RRIRPRPPRLPRPRPRPGESPRP | -0.0364 |
| RRIRPRPPRLPRPRPRPGEVPRP | 0.605 |
| RRIRPRPPRLPRPRPRPGFIPRP | -0.221 |
| RRIRPRPPRLPRPRPRPGGCPRP | 0.295 |
| RRIRPRPPRLPRPRPRPGGGPRP | 0.728 |
| RRIRPRPPRLPRPRPRPGGRPRP | 0.461 |
| RRIRPRPPRLPRPRPRPGHKPRP | -0.287 |

| Sequence | shrunken log2 fold change |
| --- | --- |
| RRIRPRPPRLPRPRPRPGIDPRP | -0.0536 |
| RRIRPRPPRLPRPRPRPGIMPRP | -0.2 |
| RRIRPRPPRLPRPRPRPGKRPRP | 0.389 |
| RRIRPRPPRLPRPRPRPGLHPRP | 0.09 |
| RRIRPRPPRLPRPRPRPGNSPRP | 0.0886 |
| RRIRPRPPRLPRPRPRPGPRPRP | 0.677 |
| RRIRPRPPRLPRPRPRPGQAPRP | -0.0745 |
| RRIRPRPPRLPRPRPRPGQQPRP | 0.167 |
| RRIRPRPPRLPRPRPRPGRDPRP | 0.286 |
| RRIRPRPPRLPRPRPRPGRFPRP | 0.434 |
| RRIRPRPPRLPRPRPRPGTIPRP | -0.171 |
| RRIRPRPPRLPRPRPRPGTTPRP | 0.195 |
| RRIRPRPPRLPRPRPRPGWCPRP | 0.072 |
| RRIRPRPPRLPRPRPRPHAHPRP | 0.00207 |
| RRIRPRPPRLPRPRPRPHAIPRP | -0.217 |
| RRIRPRPPRLPRPRPRPHARPRP | 0.111 |
| RRIRPRPPRLPRPRPRPHATPRP | 0.323 |
| RRIRPRPPRLPRPRPRPHCDPRP | 0.22 |
| RRIRPRPPRLPRPRPRPHCQPRP | -0.0117 |
| RRIRPRPPRLPRPRPRPHDLPRP | 0.0288 |
| RRIRPRPPRLPRPRPRPHEVPRP | -0.0664 |
| RRIRPRPPRLPRPRPRPHFPPRP | -0.204 |
| RRIRPRPPRLPRPRPRPHHDPRP | -0.266 |
| RRIRPRPPRLPRPRPRPHHFPRP | -0.0294 |
| RRIRPRPPRLPRPRPRPHHKPRP | -0.647 |

| Sequence | shrunken log2 fold change |
| --- | --- |
| RRIRPRPPRLPRPRPRPHHRPRP | -0.118 |
| RRIRPRPPRLPRPRPRPHIKPRP | -0.454 |
| RRIRPRPPRLPRPRPRPHKTPRP | -0.0296 |
| RRIRPRPPRLPRPRPRPHMGPRP | -0.461 |
| RRIRPRPPRLPRPRPRPHMWPRP | -0.175 |
| RRIRPRPPRLPRPRPRPHPLPRP | 0.0451 |
| RRIRPRPPRLPRPRPRPHPVPRP | 0.151 |
| RRIRPRPPRLPRPRPRPHRWPRP | 0.25 |
| RRIRPRPPRLPRPRPRPHSLPRP | -0.0621 |
| RRIRPRPPRLPRPRPRPHSTPRP | -0.583 |
| RRIRPRPPRLPRPRPRPHSYPRP | 0.0057 |
| RRIRPRPPRLPRPRPRPHVRPRP | 0.036 |
| RRIRPRPPRLPRPRPRPHWEPRP | -0.146 |
| RRIRPRPPRLPRPRPRPHWLPRP | -0.0232 |
| RRIRPRPPRLPRPRPRPHYDPRP | -0.459 |
| RRIRPRPPRLPRPRPRPHYEPRP | -0.206 |
| RRIRPRPPRLPRPRPRPIAHPRP | 0.125 |
| RRIRPRPPRLPRPRPRPIAMPRP | 0.0793 |
| RRIRPRPPRLPRPRPRPIDAPRP | 0.159 |
| RRIRPRPPRLPRPRPRPIDDPRP | 0.00554 |
| RRIRPRPPRLPRPRPRPIEAPRP | 0.0713 |
| RRIRPRPPRLPRPRPRPIGQPRP | 0.121 |
| RRIRPRPPRLPRPRPRPIGWPRP | 0.376 |
| RRIRPRPPRLPRPRPRPIHAPRP | -0.0974 |
| RRIRPRPPRLPRPRPRPIIKPRP | -0.417 |

| Sequence | shrunken log2 fold change |
| --- | --- |
| RRIRPRPPRLPRPRPRPIIPPRP | -0.339 |
| RRIRPRPPRLPRPRPRPIKNPRP | -0.219 |
| RRIRPRPPRLPRPRPRPIKRPRP | -0.125 |
| RRIRPRPPRLPRPRPRPINVPRP | -0.366 |
| RRIRPRPPRLPRPRPRPIPAPRP | 0.342 |
| RRIRPRPPRLPRPRPRPITKPRP | -0.0256 |
| RRIRPRPPRLPRPRPRPIVNPRP | -0.166 |
| RRIRPRPPRLPRPRPRPIWKPRP | 0.0296 |
| RRIRPRPPRLPRPRPRPIWRPRP | 0.583 |
| RRIRPRPPRLPRPRPRPIWVPRP | 0.0645 |
| RRIRPRPPRLPRPRPRPKATPRP | 0.463 |
| RRIRPRPPRLPRPRPRPKCYPRP | -0.193 |
| RRIRPRPPRLPRPRPRPKELPRP | 0.0936 |
| RRIRPRPPRLPRPRPRPKFWPRP | 0.414 |
| RRIRPRPPRLPRPRPRPKGIPRP | -0.0606 |
| RRIRPRPPRLPRPRPRPKGRPRP | -0.086 |
| RRIRPRPPRLPRPRPRPKHCPRP | -0.0919 |
| RRIRPRPPRLPRPRPRPKKPPRP | 0.0432 |
| RRIRPRPPRLPRPRPRPKLDPRP | 0.0519 |
| RRIRPRPPRLPRPRPRPKMVPRP | 0.0319 |
| RRIRPRPPRLPRPRPRPKNKPRP | -0.187 |
| RRIRPRPPRLPRPRPRPKPEPRP | 0.311 |
| RRIRPRPPRLPRPRPRPKPPPRP | 0.538 |
| RRIRPRPPRLPRPRPRPKREPRP | 0.1 |
| RRIRPRPPRLPRPRPRPKRMPRP | 0.139 |

| Sequence | shrunken log2 fold change |
| --- | --- |
| RRIRPRPPRLPRPRPRPKRWPRP | 0.441 |
| RRIRPRPPRLPRPRPRPKTIPRP | -0.0767 |
| RRIRPRPPRLPRPRPRPKVEPRP | 0.00158 |
| RRIRPRPPRLPRPRPRPKWWPRP | 0.235 |
| RRIRPRPPRLPRPRPRPKYCPRP | -0.91 |
| RRIRPRPPRLPRPRPRPKYKPRP | -0.39 |
| RRIRPRPPRLPRPRPRPLAMPRP | 0.193 |
| RRIRPRPPRLPRPRPRPLDDPRP | 0.0437 |
| RRIRPRPPRLPRPRPRPLDEPRP | 0.102 |
| RRIRPRPPRLPRPRPRPLDHPRP | -0.114 |
| RRIRPRPPRLPRPRPRPLEFPRP | -0.241 |
| RRIRPRPPRLPRPRPRPLETPRP | 0.151 |
| RRIRPRPPRLPRPRPRPLFFPRP | 0.0106 |
| RRIRPRPPRLPRPRPRPLFHPRP | -0.131 |
| RRIRPRPPRLPRPRPRPLFVPRP | -0.176 |
| RRIRPRPPRLPRPRPRPLGYPRP | -0.0805 |
| RRIRPRPPRLPRPRPRPLHSPRP | -0.207 |
| RRIRPRPPRLPRPRPRPLHTPRP | -0.128 |
| RRIRPRPPRLPRPRPRPLKMPRP | -0.124 |
| RRIRPRPPRLPRPRPRPLLRPRP | 1.73 |
| RRIRPRPPRLPRPRPRPLMAPRP | 0.213 |
| RRIRPRPPRLPRPRPRPLMLPRP | -0.21 |
| RRIRPRPPRLPRPRPRPLMYPRP | -0.318 |
| RRIRPRPPRLPRPRPRPLQRPRP | 0.395 |
| RRIRPRPPRLPRPRPRPLRAPRP | 0.86 |
